Reference: IntAct's records for PubMed 21572041

B1: C-type lectin domain family 2 member D (Homo sapiens), Q9UHP7-1 (parent)
chain: MHDSNNVEKDITPSELPANPGCLHSKEHSIKATLIWRLFFLIMFLTIIVCGMVAALSAIRANCHQEPSVCLQAACPESWIGFQRKCFYFSDDTKNWTSSQRFCDSQDADLAQVESFQELNFLLRYKGPSDHWIGLSREQGQPWKWINGTEWTRQFPILGAGECAYLNDKGASSARHYTERKWICSKSDIHV

Variants of: B1
Conditions: with klrb1_human KLRB1, Q12918
klrb1_human KLRB1, Q12918, sequence (Q12918 whole entry): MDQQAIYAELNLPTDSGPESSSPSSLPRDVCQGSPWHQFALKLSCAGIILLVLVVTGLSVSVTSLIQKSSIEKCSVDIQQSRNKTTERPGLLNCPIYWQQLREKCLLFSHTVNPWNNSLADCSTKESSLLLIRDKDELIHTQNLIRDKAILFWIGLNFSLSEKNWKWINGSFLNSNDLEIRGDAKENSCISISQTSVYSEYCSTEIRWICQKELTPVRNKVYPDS

Variant | effect of a mutation on the interaction
N167A | decreasing interaction strength
K169E | disrupting interaction strength
Y165A | decreasing interaction strength

Now from value to variant:

effect of a mutation on the interaction | Variant
disrupting interaction strength | K181E
disrupting interaction strength | R180E
disrupting interaction strength | R175E

Variants of: B1
Conditions: with klrb1_human KLRB1, Q12918
Remark: another data set of the same source

effect of a mutation on the interaction | Variant
increasing interaction strength | K169E
